Experimental findings from the supplement of paper PMC11246515 are described below.

± gives the standard deviation of the averaged measurements.

This data set in a line: total protein half-life in vivo (active degradation + dilution); higher = more stable protein.
Setting [1] is: E. coli NCM3722 delta-clpP delta-lon delta-hslV, growth: N-lim chemostat, doubling time 6 h.
The mark [2] stands for this setting: E. coli NCM3722 delta-clpP, growth: N-lim chemostat, doubling time 6 h.
[3] abbreviates: E. coli NCM3722 delta-hslV, growth: N-lim chemostat, doubling time 6 h.
Setting [4] is: wild type E. coli NCM3722, growth: C-lim chemostat, doubling time 3 h.
[5] abbreviates: wild type E. coli NCM3722, growth: C-lim chemostat, doubling time 6 h.
Where [6] appears, read: wild type E. coli NCM3722, growth: C-lim chemostat, doubling time 12 h.
Setting [7] is: wild type E. coli NCM3722, growth: N-lim chemostat, doubling time 6 h.
The mark [8] stands for this setting: wild type E. coli NCM3722, growth: N-lim chemostat, doubling time 12 h.
Where [9] appears, read: wild type E. coli NCM3722, growth: P-lim chemostat, doubling time 6 h.
[10] abbreviates: wild type E. coli NCM3722, growth: P-lim chemostat, doubling time 12 h.
Where [11] appears, read: E. coli NCM3722 delta-lon, growth: N-lim chemostat, doubling time 6 h.
Setting [12] is: E. coli NCM3722 delta-smpB, growth: N-lim chemostat, doubling time 6 h.

For the sequence “MKFQAIVLASFLVMPYALADDQGGLKQDAAPPPPHAIEDGYRGTDDAKKMTVDFAKTMHDGASVSLRGNLISHKGEDRYVFRDKSGEINVVIPAAVFDGREVQPDQMINISGSLDKKSAPAVVRVTHLQK”, the “total protein half-life in vivo” value stood at 3.34 ± 0.2 h under setting [1]; 3.77 ± 0.45 h under setting [2]; 5.37 ± 0.2 h under setting [3]; 3.02 ± 0.51 h under setting [4]; 5.22 ± 0.22 h under setting [5]; 6.52 ± 1.8 h under setting [6]. Also, the “total protein half-life in vivo” value runs as follows: under setting [7], 5.18 ± 0.37 h; under setting [8], 8.94 ± 0.26 h; under setting [9], 4.33 ± 0.9 h; under setting [10], 7.82 ± 2.9 h.
Regarding “MMRIALFLLTNLAVMVVFGLVLSLTGIQSSSVQGLMIMALLFGFGGSFVSLLMSKWMALRSVGGEVIEQPRNERERWLVNTVATQARQAGIAMPQVAIYHAPDINAFATGARRDASLVAVSTGLLQNMSPDEAEAVIAHEISHIANGDMVTMTLIQGVVNTFVIFISRILAQLAAGFMGGNRDEGEESNGNPLIYFAVATVLELVFGILASIITMWFSRHREFHADAGSAKLVGREKMIAALQRLKTSYEPQEATSMMALCINGKSKSLSELFMTHPPLDKRIEALRTGEYLK”, the “total protein half-life in vivo” value was 4.24 ± 0.051 h under setting [1]; 5.6 ± 0.59 h under setting [2]; 5.25 ± 0.11 h under setting [3]; 4.77 ± 0.29 h under setting [11]; 4.77 ± 0.48 h under setting [12]; 2.45 ± 0.076 h under setting [4]. Further, the “total protein half-life in vivo” value under setting [5] was 4.83 ± 0.3 h; the “total protein half-life in vivo” value under setting [6] is 8.92 ± 1.5 h; the “total protein half-life in vivo” value under setting [7] came out at 5.48 ± 0.92 h; the “total protein half-life in vivo” value under setting [8] amounted to 10.5 ± 1.2 h; the “total protein half-life in vivo” value under setting [9] came to 4.81 ± 0.22 h; the “total protein half-life in vivo” value under setting [10] turned out to be 7.97 ± 0.28 h.
As for “MESKVVVPAQGKKITLQNGKLNVPENPIIPYIEGDGIGVDVTPAMLKVVDAAVEKAYKGERKISWMEIYTGEKSTQVYGQDVWLPAETLDLIREYRVAIKGPLTTPVGGGIRSLNVALRQELDLYICLRPVRYYQGTPSPVKHPELTDMVIFRENSEDIYAGIEWKADSADAEKVIKFLREEMGVKKIRFPEHCGIGIKPCSEEGTKRLVRAAIEYAIANDRDSVTLVHKGNIMKFTEGAFKDWGYQLAREEFGGELIDGGPWLKVKNPNTGKEIVIKDVIADAFLQQILLRPAEYDVIACMNLNGDYISDALAAQVGGIGIAPGANIGDECALFEATHGTAPKYAGQDKVNPGSIILSAEMMLRHMGWTEAADLIVKGMEGAINAKTVTYDFERLMDGAKLLKCSEFGDAIIENM”, the “total protein half-life in vivo” value is, setting by setting: under setting [1], 4.7 ± 0.38 h; under setting [2], 4.36 ± 0.53 h; under setting [3], 4.05 ± 0.061 h; under setting [11], 4.61 ± 0.056 h; under setting [12], 4.1 ± 0.047 h; under setting [4], 3.16 ± 0.068 h. In addition, the “total protein half-life in vivo” value runs as follows: under setting [5], 5.584 ± 0.048 h; under setting [6], 10.1 ± 0.64 h; under setting [7], 4.08 ± 0.24 h; under setting [8], 6.47 ± 0.1 h; under setting [9], 5.73 ± 0.1 h; under setting [10], 12.3 ± 0.41 h.
Regarding “MKTKVILSQQMASAIIAAGQEEAQKNNWSVSIAVADDGGHLLALSRMDDCAPIAAYISQEKARTAALGRRETKGYEEMVNNGRTAFVTAPLLTSLEGGVPVVVDGQIIGAVGVSGLTGAQDAQVAKAAAAVLAK [P0AEQ1]”, the “total protein half-life in vivo” value is, setting by setting: under setting [1], 4.93 ± 0.46 h; under setting [2], 4.12 ± 0.23 h; under setting [11], 4.27 ± 0.26 h; under setting [12], 4.21 ± 0.32 h; under setting [4], 3.04 ± 0.057 h; under setting [5], 5.267 ± 0.02 h. The “total protein half-life in vivo” value came out at 9.62 ± 0.24 h under setting [6]; 4.29 ± 0.12 h under setting [7]; 5.98 h under setting [8]; 5.43 ± 0.44 h under setting [9]; 11.6 ± 0.93 h under setting [10].
Take “MENNRNFPARQFHSLTFFAGLCIGITPVAQALAAEGQTNADDTLVVEASTPSLYAPQQSADPKFSRPVADTTRTMTVISEQVIKDQGATNLTDALKNVPGVGAFFAGENGNSTTGDAIYMRGADTSNSIYIDGIRDIGSVSRDTFNTEQVEVIKGPSGTDYGRSAPTGSINMISKQPRNDSGIDASASIGSAWFRRGTLDVNQVIGDTTAVRLNVMGEKTHDAGRDKVKNERYGVAPSVAFGLGTANRLYLNYLHVTQHNTPDGGIPTIGLPGYSAPSAGTAALNHSGKVDTHNFYGTDSDYDDSTTDTATMRFEHDINDNTTIRNTTRWSRVKQDYLMTAIMGGASNITQPTSDVNSWTWSRTANTKDVSNKILTNQTNLTSTFYTGSIGHDVSTGVEFTRETQTNYGVNPVTLPAVNIYHPDSSIHPGGLTRNGANANGQTDTFAIYAFDTLQITRDFELNGGIRLDNYHTEYDSATACGGSGRGAITCPTGVAKGSPVTTVDTAKSGNLMNWKAGALYHLTENGNVYINYAVSQQPPGGNNFALAQSGSGNSANRTDFKPQKANTSEIGTKWQVLDKRLLLTAALFRTDIENEVEQNDDGTYSQYGKKRVEGYEISVAGNITPAWQVIGGYTQQKATIKNGKDVAQDGSSSLPYTPEHAFTLWSQYQATDDISVGAGARYIGSMHKGSDGAVGTPAFTEGYWVADAKLGYRVNRNLDFQLNVYNLFDTDYVASINKSGYRYHPGEPRTFLLTANMHF”: the “total protein half-life in vivo” value by setting is: under setting [4], 3.14 ± 0.17 h; under setting [6], greater than 16 h; under setting [7], greater than 8 h; under setting [8], greater than 16 h.
